B1: CUL2^ZYG11B (residues 490–728) (domain or fragment)
chain: ELFIVRQLLQIVKQKTNQNSVDTTLKFTLSALWNLTDESPTTCRHFIENQGLELFMRVLESFPTESSIQQKVLGLLNNIAEVQELHSELMWKDFIDHISSLLHSVEVEVSYFAAGIIAHLISRGEQAWTLSRSQRNSLLDDLHSAILKWPTPECEMVAYRSFNPFFPLLGCFTTPGVQLWAVWAMQHVCSKNPSRYCSMLIEEGGLQHLYNIKDHEHTDPHVQQIAVAILDSLEKHIVR

Assay [1] deals with B1. The assay is described as follows: ITC. For orientation: In ITC the heat of successive injections is recorded.
The target of assay [2] is SNX11-degron peptide. The assay is described as follows: ITC; pre-formed ZYG11B/ORF10 N5 peptide complex.
In assay [3] the target is SNX11-degron peptide. The experiment in a line: ITC.
Assay [4] deals with B1. The assay is described as follows: ITC. The source holds these as a separate data set.

A value given as a limit tells only on which side of the number the result lay.

On to GYIN [SARS-CoV-2 ORF10 N4 peptide], for which the Ka in assay [1] came to 193000 M⁻¹.
In the case of B1, the Kd in the assay with SNX11-degron peptide [2] was 5.23 µM; in the assay with SNX11-degron peptide [3] it was 0.4 µM.
GY [SARS-CoV-2 ORF10 N2 peptide] registered a Kd in assay [4] of over 200 µM.
The molecule GYI [SARS-CoV-2 ORF10 N3 peptide] yielded a Ka in assay [1] of 69100 M⁻¹.
The molecule GYINV [SARS-CoV-2 ORF10 N5 peptide] gave a Ka in assay [1] of 340000 M⁻¹.

As a reminder, the Kd is the concentration at which binding is half-saturated. Read a low Kd as higher affinity.

The values are drawn from PMC11413682 (2024).
